Measured values reported in the supplement of paper PMC7125110.
± gives the standard error. For some assays here: Variants at the floor of the assay were thinned out.

B1: glmS ribozyme (parent)
chain: AUAAAAGCGCCAGAACUACAGAAAUGUAGUUGACGAGGAGGAGGUUUAUCGAAUUUUCGGCGGAUGCCUCCAAA

What was measured:
Conditions in all cases: with glucosamine-6-phosphate
glucosamine-6-phosphate [1] = variants of: B1; experiment: kcat; higher = faster cleavage; RNA array
Procedure, shortened: (§1)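 Ribozyme variants carrying barcodes were transcribed in situ on sequenced MiSeq chips by E. coli RNA polymerase and tracked at 37 °C with a hybridised Cy3 probe. They were exposed to 40 μM to 10 mM glucosamine-6-phosphate in HEPES/KCl/Mg(OAc)2 buffer. kobs came from exponential decay fits of normalised per-tile medians, and kcat and KM from weighted Michaelis–Menten fits.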

glucosamine-6-phosphate [2] = variants of: B1; experiment: self-cleavage kobs at 640 uM GlcN6P; higher = faster cleavage; RNA array
Procedure, shortened: as §1

glucosamine-6-phosphate [3] = variants of: B1; experiment: self-cleavage kobs at 2500 uM GlcN6P; higher = faster cleavage; RNA array
Procedure, shortened: as §1

glucosamine-6-phosphate [4] = variants of: B1; experiment: self-cleavage kobs at 10000 uM GlcN6P; higher = faster cleavage; RNA array
Procedure, shortened: as §1

glucosamine-6-phosphate [5] = variants of: B1; experiment: KM; higher = weaker cofactor use; RNA array
Procedure, shortened: as §1

glucosamine-6-phosphate [6] = variants of: B1; experiment: self-cleavage kobs at 40 uM GlcN6P; higher = faster cleavage; RNA array
Procedure, shortened: as §1

glucosamine-6-phosphate [7] = variants of: B1; experiment: self-cleavage kobs at 160 uM GlcN6P; higher = faster cleavage; RNA array
Procedure, shortened: as §1

Variant | kcat (glucosamine-6-phosphate [1]) | self-cleavage kobs at 640 uM GlcN6P (glucosamine-6-phosphate [2]) | self-cleavage kobs at 2500 uM GlcN6P (glucosamine-6-phosphate [3]) | self-cleavage kobs at 10000 uM GlcN6P (glucosamine-6-phosphate [4]) | KM (glucosamine-6-phosphate [5]) | self-cleavage kobs at 40 uM GlcN6P (glucosamine-6-phosphate [6]) | self-cleavage kobs at 160 uM GlcN6P (glucosamine-6-phosphate [7])
AUAAAAGCGCCAGAACUACAGAAAUGUAGUUGACGAGGAGGAGGUUGAUCGAGUUUCCGGCGGAUGCUUCCAAA [U47G A53G U57C C68U] | 9.73e-05 ± 3.2e-05 s⁻¹ | 3.09e-05 ± 1.2e-05 s⁻¹ | 3.84e-05 ± 1.3e-05 s⁻¹ | 8.44e-05 ± 1.8e-05 s⁻¹ |  |  | 
AUAAAAGCGCCAGAACUACAGAAAUGUAGUUGACGAGGAGGAGGUUUCUCGAAUUUUCGGCGGAUGACUCCAAA [A48C C67A] | 0.000168 ± 1e-05 s⁻¹ | 4.27e-05 ± 9.9e-06 s⁻¹ | 0.000104 ± 1.4e-05 s⁻¹ | 0.00014 ± 1.4e-05 s⁻¹ | 1800 ± 310 µM |  | 
AUAAAAGCGCCAGAACUACAGAAAUGUAGUUGACGAGGAGGAGGUUGAUCGAAUUUUCGGCGGAUGCCUACAAA [U47G C70A] | 0.000101 ± 9.5e-06 s⁻¹ | 9.99e-05 ± 1.3e-05 s⁻¹ | 0.000111 ± 1.3e-05 s⁻¹ | 8.94e-05 ± 8.5e-06 s⁻¹ |  | 3.74e-05 ± 1.6e-05 s⁻¹ | 0.000107 ± 1.5e-05 s⁻¹
AUAAAAGCGCCAGAACUACAGAAAUGUAGUUGACGAGGAGGAGGUUGAUCGAGUUUUCGGCGGAUGCCUCCAAA [U47G A53G] | 0.00632 ± 0.0012 s⁻¹ | 0.00317 ± 0.00055 s⁻¹ | 0.00362 ± 0.00064 s⁻¹ | 0.0074 ± 0.00097 s⁻¹ | 804 ± 250 µM | 0.000319 ± 4.7e-05 s⁻¹ | 0.000975 ± 0.00019 s⁻¹
AUAAAAGCGCCAGAACUACAGAAAUGUAGUUGACGAGGAGGAGGUUCAUCGAAUUUUCGGCGGAGGCCUCCAAA [U47C U65G] | 0.00435 ± 0.0005 s⁻¹ | 0.000565 ± 0.00011 s⁻¹ | 0.00189 ± 0.00047 s⁻¹ | 0.00312 ± 0.0006 s⁻¹ | 3840 ± 610 µM | 4.89e-05 ± 1.1e-05 s⁻¹ | 
AUAAAAGCGCCAGAACUACAGAAAUGUAGUUGACGAGGAGGAGGUUCAUCGAAUUUUCGGCGGAAGCCUCCAAA [U47C U65A] | 0.00113 ± 0.00024 s⁻¹ | 0.000443 ± 9.4e-05 s⁻¹ | 0.00121 ± 0.00023 s⁻¹ | 0.00092 ± 0.00017 s⁻¹ | 930 ± 300 µM | 6.54e-05 ± 1.7e-05 s⁻¹ | 0.000154 ± 2.2e-05 s⁻¹
AUAAAAGCGCCAGAACUACAGAAAUGUAGUUGACGAGGAGGAGGUUGAACGAAUUUUCGGCGGAUGCCUCCAAA [U47G U49A] | 1.31e-05 ± 3.3e-06 s⁻¹ |  |  |  |  |  | 
AUAAAAGCGCCAGAACUACAGAAAUGUAGUUGACGAGGAGGAGGUUGAUCGAAUUUUCGGCGGAUGCGUCCAAA [U47G C68G] | 8.45e-05 ± 1.2e-05 s⁻¹ | 8.26e-05 ± 1e-05 s⁻¹ | 0.000104 ± 1.2e-05 s⁻¹ | 7.41e-05 ± 6.8e-06 s⁻¹ |  | 5.34e-05 ± 1e-05 s⁻¹ | 0.000166 ± 2.8e-05 s⁻¹
AUAAAAGCGCCAGAACUACAGAAAUGUAGUUGACGAGGAGGAGGUUGAUCGAAUUUUCGGCGGAUUCCUCCAAA [U47G G66U] | 0.000146 ± 7.9e-06 s⁻¹ | 6.79e-05 ± 8.7e-06 s⁻¹ | 0.000106 ± 1.1e-05 s⁻¹ | 0.000142 ± 1.4e-05 s⁻¹ | 756 ± 130 µM |  | 3.12e-05 ± 1.5e-05 s⁻¹
AUAAAAGCGCCAGAACUACAGAAAUGUAGUUGACGAGGAGGAGGUUUCUCGAAUUUUCGGCGGAUGCGUCCAAA [A48C C68G] | < 1e-05 s⁻¹ |  |  | < 1e-05 s⁻¹ |  | < 1e-05 s⁻¹ | 
AUAAAAGCGCCAGAACUACAGAAAUGUAGUUGACGAGGAGGAGGUUGAUCGAAUUUUCGGCGGAGGCCUCCAAA [U47G U65G] | 0.00249 ± 0.00033 s⁻¹ | 0.000451 ± 7e-05 s⁻¹ | 0.00107 ± 0.00015 s⁻¹ | 0.0021 ± 0.00028 s⁻¹ | 2760 ± 530 µM | 3.08e-05 ± 1.1e-05 s⁻¹ | 0.000153 ± 2e-05 s⁻¹
AUAAAAGCGCCAGAACUACAGAAAUGUAGUUGACGAGGAGGAGGUUGAUCGAAUUCUCGGCGGGUGCCUCCAAA [U47G U56C A64G] | 0.000113 ± 1.2e-05 s⁻¹ | 2.82e-05 ± 1.4e-05 s⁻¹ | 7.42e-05 ± 1.5e-05 s⁻¹ | 9.62e-05 ± 1.7e-05 s⁻¹ | 1500 ± 480 µM |  | 
AUAAAAGCGCCAGAACUACAGAAAUGUAGUUGACGAGGAGGAGGUUGAUUGAAUUUUCGGCGGCUGCCUCCAAA [U47G C50U A64C] | 1.3e-05 ± 3.4e-06 s⁻¹ |  |  |  |  |  | 
AUAAAAGCGCCAGAACUACAGAAAUGUAGUUGACGAGGAGGAGGUUGAUCGAAUUUGCGGCGGAUGCCUCCAAA [U47G U57G] | 6.2e-05 ± 9.2e-06 s⁻¹ |  | 6.68e-05 ± 2.2e-05 s⁻¹ | 5.61e-05 ± 1.2e-05 s⁻¹ |  |  | 
AUAAAAGCGCCAGAACUACAGAAAUGUAGUUGACGAGGAGGAGGUUUCUCGAAUUUUCGGCGGAUGCCUUCAAA [A48C C70U] | 0.000564 ± 5.5e-05 s⁻¹ | 8.59e-05 ± 1.5e-05 s⁻¹ | 0.000254 ± 3.9e-05 s⁻¹ | 0.000401 ± 7.4e-05 s⁻¹ | 3470 ± 540 µM |  | 
AUAAAAGCGCCAGAACUACAGAAAUGUAGUUGACGAGGAGGAGGUUGAUCGAAUUUUCGGCGGAUGCCUCAAAA [U47G C71A] | 0.00107 ± 0.00043 s⁻¹ | 0.000443 ± 0.0001 s⁻¹ | 0.000556 ± 0.0001 s⁻¹ | 0.00146 ± 0.0002 s⁻¹ |  | 5.64e-05 ± 1.4e-05 s⁻¹ | 
